Assay results taken from patent US20080220450A1 (published 2008).

Biological target: DRB1*0701 (DR7)
Test: binding to purified HLA

In order of rising IC50:
1. NGIEWAIANNMDVIN [BPN' Y217L .109]  0.058 µM
2. SYPARYANAMAVGAT [B. lentus .160]  0.138 µM
3. GTVAALNNSIGVLGV [BPN' Y217L .70]  0.154 µM
4. GSISYPARYANAMAV [B. lentus 157]  0.724 µM

Biological target: DRB4*0101 (DRw53)
Test: binding to purified HLA

Compared with GTVAALNNSIGVLGV [BPN' Y217L .70], GSISYPARYANAMAV [B. lentus 157] is higher in IC50: 0.031 µM for the first, over 9.67 µM for the second.

First: NGIEWAIANNMDVIN [BPN' Y217L .109]
Second: SYPARYANAMAVGAT [B. lentus .160]
The IC50 of the first is 7.7-fold lower: 1.07 µM for the first, 8.26 µM for the second. The first is the more potent here.

Biological target: DRB5*0101 (DR2w2β2)
Test: binding to purified HLA

In order of falling IC50:
1. GTVAALNNSIGVLGV [BPN' Y217L .70]  15.7 µM
2. SYPARYANAMAVGAT [B. lentus .160]  1.73 µM
3. NGIEWAIANNMDVIN [BPN' Y217L .109]  1.02 µM

Biological target: DRB1*1501 (DR2w2β1) (human)
Test: binding to purified HLA

In order of falling IC50:
1. GSISYPARYANAMAV [B. lentus 157]  0.865 µM
2. NGIEWAIANNMDVIN [BPN' Y217L .109]  0.683 µM
3. GTVAALNNSIGVLGV [BPN' Y217L .70]  0.021 µM

Biological target: DQA1*0501/DQB1*0201 (DQ2)
Test: binding to purified HLA

In order of rising IC50:
1. NGIEWAIANNMDVIN [BPN' Y217L .109]  0.097 µM
2. GTVAALNNSIGVLGV [BPN' Y217L .70]  0.67 µM
3. SYPARYANAMAVGAT [B. lentus .160]  1.3 µM
4. GSISYPARYANAMAV [B. lentus 157]  6.16 µM

Biological target: DRB1*0802 (DR8w2)
Test: binding to purified HLA

Compared with GTVAALNNSIGVLGV [BPN' Y217L .70], GSISYPARYANAMAV [B. lentus 157] is higher in IC50: 1.71 µM for the first, over 16.3 µM for the second.

NGIEWAIANNMDVIN [BPN' Y217L .109] and SYPARYANAMAVGAT [B. lentus .160] are within 1.5-fold of each other in IC50: 2.19 µM for the first, 2.03 µM for the second.

Biological target: DRB3*0101 (DR52a)
Test: binding to purified HLA

Going from GTVAALNNSIGVLGV [BPN' Y217L .70] to GSISYPARYANAMAV [B. lentus 157], the IC50 rises from 2.01 µM to over 9.43 µM. The first is the more potent here.

Going from NGIEWAIANNMDVIN [BPN' Y217L .109] to SYPARYANAMAVGAT [B. lentus .160], the IC50 rises from 0.119 µM to 6.16 µM (52-fold). The first is the more potent here.

Biological target: DRB1*0901 (DR9)
Test: binding to purified HLA

In order of falling IC50:
1. GSISYPARYANAMAV [B. lentus 157]  1.48 µM
2. SYPARYANAMAVGAT [B. lentus .160]  0.164 µM
3. GTVAALNNSIGVLGV [BPN' Y217L .70]  0.046 µM
4. NGIEWAIANNMDVIN [BPN' Y217L .109]  0.043 µM

Biological target: DRB1*0301 (DR3w17)
Test: binding to purified HLA

In order of rising IC50:
1. GTVAALNNSIGVLGV [BPN' Y217L .70]  8.74 µM
2. GSISYPARYANAMAV [B. lentus 157]  16.4 µM

Biological target: DRB1*0404 (DR4w14)
Test: binding to purified HLA

In order of falling IC50:
1. GSISYPARYANAMAV [B. lentus 157]  7.58 µM
2. SYPARYANAMAVGAT [B. lentus .160]  5.54 µM
3. NGIEWAIANNMDVIN [BPN' Y217L .109]  0.166 µM
4. GTVAALNNSIGVLGV [BPN' Y217L .70]  0.0057 µM

Biological target: DRB1*0405 (DR4w15)
Test: binding to purified HLA

In order of falling IC50:
1. GSISYPARYANAMAV [B. lentus 157]  6.78 µM
2. SYPARYANAMAVGAT [B. lentus .160]  1.35 µM
3. GTVAALNNSIGVLGV [BPN' Y217L .70]  0.166 µM
4. NGIEWAIANNMDVIN [BPN' Y217L .109]  0.037 µM

Biological target: DQA1*0301/DQB1*0301 (DQ3.1)
Test: binding to purified HLA

In order of rising IC50:
1. SYPARYANAMAVGAT [B. lentus .160]  0.063 µM
2. GTVAALNNSIGVLGV [BPN' Y217L .70]  0.44 µM
3. NGIEWAIANNMDVIN [BPN' Y217L .109]  2.18 µM
4. GSISYPARYANAMAV [B. lentus 157]  6.01 µM

Biological target: DRB1*1201 (DR5w12)
Test: binding to purified HLA

In order of falling IC50:
1. NGIEWAIANNMDVIN [BPN' Y217L .109]  1.24 µM
2. GTVAALNNSIGVLGV [BPN' Y217L .70]  0.08 µM

Biological target: DQA1*0301/DQB1*0302 (DQ3.2)
Test: binding to purified HLA

In order of rising IC50:
1. NGIEWAIANNMDVIN [BPN' Y217L .109]  0.08 µM
2. SYPARYANAMAVGAT [B. lentus .160]  1.05 µM
3. GTVAALNNSIGVLGV [BPN' Y217L .70]  2.07 µM
4. GSISYPARYANAMAV [B. lentus 157]  5.01 µM

Biological target: DRB1*0401 (DR4w4)
Test: binding to purified HLA

In order of falling IC50:
1. GSISYPARYANAMAV [B. lentus 157]  4.79 µM
2. SYPARYANAMAVGAT [B. lentus .160]  0.142 µM
3. GTVAALNNSIGVLGV [BPN' Y217L .70]  0.033 µM
4. NGIEWAIANNMDVIN [BPN' Y217L .109]  0.03 µM

Biological target: DRB1*0101 (DR1) (human, UniProt P01903 26-254)
Test: binding to purified HLA

In order of falling IC50:
1. GSISYPARYANAMAV [B. lentus 157]  1.06 µM
2. SYPARYANAMAVGAT [B. lentus .160]  0.013 µM
3. NGIEWAIANNMDVIN [BPN' Y217L .109]  0.0088 µM
4. GTVAALNNSIGVLGV [BPN' Y217L .70]  0.0065 µM

Biological target: DRB1*1101 (DR5w11)
Test: binding to purified HLA

In order of falling IC50:
1. SYPARYANAMAVGAT [B. lentus .160]  5.55 µM
2. NGIEWAIANNMDVIN [BPN' Y217L .109]  3.02 µM
3. GTVAALNNSIGVLGV [BPN' Y217L .70]  2.38 µM

Biological target: HLA-DR6(13) (human)
Test: binding to purified HLA

In order of rising IC50:
1. NGIEWAIANNMDVIN [B. amyloliquifaciens subtilisin BPN' Y217L epitope peptide, amino acids 109-123]  0.0098 µM
2. SYPARYANAMAVGAT [B. lentus subtilisin epitope peptide, amino acids 160-174]  0.559 µM
3. GSISYPARYANAMAV [B. lentus subtilisin epitope peptide, amino acids 157-171]  2.01 µM
